In this assay the target is T1, GST-tagged PTP1B, full length (UniProt P18031 1-435).
T1 construct: protein tyrosine phosphatase PTP1B (PTPN1), full-length cDNA subcloned into pGEX-4T1; The cDNA probably comes from pJ3H PTP1B (Addgene 8601); also called GST-PTP1B; source: E. coli, purified (glutathione resin)
T1 sequence (looked up): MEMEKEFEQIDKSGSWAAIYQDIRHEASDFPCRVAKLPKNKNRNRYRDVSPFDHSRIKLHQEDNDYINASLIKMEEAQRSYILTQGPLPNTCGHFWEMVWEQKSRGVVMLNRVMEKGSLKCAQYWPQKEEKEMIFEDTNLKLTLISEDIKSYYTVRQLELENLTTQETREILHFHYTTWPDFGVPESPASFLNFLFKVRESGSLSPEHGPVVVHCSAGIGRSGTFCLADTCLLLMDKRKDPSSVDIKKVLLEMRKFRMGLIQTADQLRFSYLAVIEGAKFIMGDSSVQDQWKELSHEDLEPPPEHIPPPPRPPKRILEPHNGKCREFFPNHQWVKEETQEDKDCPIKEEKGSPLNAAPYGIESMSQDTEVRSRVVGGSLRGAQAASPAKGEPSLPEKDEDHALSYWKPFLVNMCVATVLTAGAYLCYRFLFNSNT
In words: pull-down; GST pull-down with purified proteins from E. coli: His-PDL1-CT / MBP-PDL1-CT (0.5 μg) and 0.5 μg GST or GST-fusion proteins. The note with it: both partners purified.

B1: MBP-tagged PD-L1 cytoplasmic domain (domain or fragment, human, UniProt Q9NZQ7 262-290, looked up)
chain: RKGRMMDVKKCGIQDTNSKKQSDTHLEET
notes: PD-L1 cytoplasmic domain, human, amino acids 262-290, subcloned into pET-His6 (Addgene plasmid 29656; named in the acknowledgements as PET His6 MBP TEV LIC cloning vector); The results and legend call it MBP-PDL1-CT, the methods of the pull-down His-PDL1-CT; also called MBP-PDL1-CT; His-PDL1-CT; source: E. coli, purified (His resin)
B1: the binding result is on record as “binds”.

The record behind these values is publication PMC8119208 (JCI Insight, 2021).
